According to paper PMC9802656 (Science Translational Medicine, 2022):

B1: monoclonal antibody m31A7 (IgG) (antibody, V domains shown)
VH: EVQLQQSGPEMVKPGASVKISCKTSGYTFTEYTIYWVKQSHGKSLEWLGGINPNIGDTTYNQKFKGKATLTVDTSSSTAYMELRSLTSEDSAVYYCAREVYNYSFAYWGQGTLVTVSA
VL: DIVMSQSPSSLAVSVGEKVTMSCKSSQSLLYSSNQKNYLAWYQQKLGQTPKLLIYWASSRESGVPDRFTGSGSGTDFTLTISSVRAEDLAVYYCQQYYRYPLTFGVGTKLELK
B2: m31A7 Fab (Fab, V domains shown)
VH: EVQLQQSGPEMVKPGASVKISCKTSGYTFTEYTIYWVKQSHGKSLEWLGGINPNIGDTTYNQKFKGKATLTVDTSSSTAYMELRSLTSEDSAVYYCAREVYNYSFAYWGQGTLVTVSA
VL: DIVMSQSPSSLAVSVGEKVTMSCKSSQSLLYSSNQKNYLAWYQQKLGQTPKLLIYWASSRESGVPDRFTGSGSGTDFTLTISSVRAEDLAVYYCQQYYRYPLTFGVGTKLELK

Legend:
[1] = biological target: SARS-CoV-2 S protein S1 (SARS-CoV-2, ancestral (WT), UniProt P0DTC2); test: ELISA; settings: both partners purified
[2] = biological target: SARS-CoV-2 S protein receptor binding domain (RBD) (SARS-CoV-2, ancestral (WT), UniProt P0DTC2); test: crystal structure; settings: both partners purified

Row | Binder | binding result [1] | binding result [2]
1 | B1 | binds | 
2 | B2 |  | binds
